In patent US10828354B2, “Laser-assisted intradermal administration of active substances” (PANTEC BIOSOLUTIONS AG, priority 2015, dated 2020):

Assays:
B16-OVA melanoma = B16-OVA melanoma tumor model; type: in vivo, mouse; settings: for tumor growth, therapeutic setting: B6 mice, immunized 3 days after s.c. inoculation, monitored 16 days after inoculation, vs OVA and PBS groups
Experimental: B Cohort of mice treated as specified in A with 20 μl of PBS containing OVA (low dose: 1.5 μg or high dose: 3.1 μg), or XCL1-OVA vaccibodies (low dose 2.5 μg or high dose 5.0 μg) were analyzed for tumor volume. Control mice were treated with 20 μl of PBS. Tumor volume is shown for each individual mouse and the mean (horizontal bar) is indicated for each condition.***, p<0.001; **, p<0.01; *, p<0.05 and NS: non significant.
C Time line of the prophylactic setting involving laser-assisted, dermal delivery of 20 μl of PBS containing OVA (1.5 μg) or XCL1-OVA vaccibodies (2.5 μg), subcutaneaous inoculation of the B16-OVA melanoma, and tumor volume measurement.
The B16-OVA melanoma is not rejected by immune-competent syngeneic B6 mice, unless mice have been subjected to prophylactic or therapeutic immunization. To evaluate the capacity of laser-assisted, intradermal delivery of XCL1-OVA vaccibodies to inhibit the growth of B16-OVA tumors, B6 mice were subcutaneously inoculated in the flank with B16-OVA cells (FIG. 4A). Three days later, the ear of the mice was subjected to laser-assisted, dermal delivery of XCL1-OVA vaccibodies and tumor growth was monitored 16 days after inoculation. For the sake of comparison, mice received equimolar amounts of free OVA or PBS. […] To investigate the prophylactic effects on tumor growth of laser-assisted intradermal XCL1-OVA immunization, B6 mice were immunized with XCL1-OVA vaccibodies and subcutaneously inoculated with B16-OVA tumor cells 30 days later (FIG. 4C).
(§1) Mice were injected subcutaneously (s.c.) into the flank with 10^5 B16-OVA or B16 melanoma cells (Brown et al, 2001). Tumor size was assessed 14 to 16 days later using a caliper. The presence of T cells infiltrating the tumor was assessed after enzymatic treatment of tumor mass with collagenase 2 (Worthington) and Percoll gradient (Amersham-Pharmacia).

[1] = system: tumor infiltrating CD8+ and CD4+ T cells; assay: Intracellular IFNgamma and tetramer staining of tumor-infiltrating T cells; type: in vivo, mouse; settings: day 11 after immunization, PMA and ionomycin restimulation
Experimental: D B6 mice were subcutaneously inoculated with B16-OVA or B16 and immunized 3 days later with 20 μl of PBS containing OVA (1.5 μg) or XCL1-OVA (2.5 μg) vaccibodies using laser-assisted, dermal delivery. On day 11 after immunization, the tumor mass of each mouse was excised and the percentage of […] cells determined among tumor infiltrating CD8^+ and CD4^+ T cells. Data are shown for each individual mouse and the mean (horizontal bar) is indicated for each condition. **, p<0.01; *, p<0.05 and NS for non significant.
A, B, C Mice were immunized as in FIG. 4C. […]
To assess whether the reduction in melanoma tumor growth observed upon treatment with XCL1-OVA vaccibodies was associated with the induction of endogeneous, antigen-specific CD8^+ T cells, wild-type and Xcr1^−/− mice were immunized via laser-assisted intradermal delivery of XCL1-OVA vaccibodies. Six days after immunization, the magnitude of OVA-specific T cell cytotoxicity was measured using an in vivo cytotoxic assay (FIG. 5 C). […]
as §1, with “(Amersham-Pharmacia). […]” for “(Amersham-Pharmacia).”

[2] = system: OT-I CD8+ and OT-II CD4+ T cells; assay: Proliferation of adoptively transferred CTV-labeled OT-I and OT-II T cells after laser-assisted dermal antigen delivery; type: in vivo, mouse
Experimental: B Single-cell suspension were prepared from ear-draining, auricular LNs from B6 mice that received OT-I and OT-II T cells and were immunized by applying on laser-microporated ear 20 μl of PBS containing OVA (3.1 μg), XCL1-OVA vaccibodies (5 μg), XCL1 (1.8 μg) plus OVA (3.1 μg), or PBS alone as a control. CTV dilution of OT-I and OT-II T cells was measured 72 h after antigen delivery. Numbers in histograms indicate the percentage of divided T cells (n=3).
To test whether targeting XCR1^+ dermal DCs with antigen-loaded XCL1-based vaccibodies induced the activation of antigen-specific T cells in vivo, the model antigen OVA was inserted into XCL1-based vaccibodies. Mice were adoptively transferred with CellTraceViolet (CTV)-labeled, OT-I CD8^+ T cells, which express a T cell receptor (TCR) specific for SIINFEKL, an ovalbumin (OVA) peptide presented by H-2K^b, and OT-II CD4^+ T cells, which express a TCR specific for an OVA peptide presented by H2-A^b. One day later, the ear of the mice were subjected to laser-assisted microporation and topical application of XCL1-OVA vaccibodies. To compare the potency of the XCL1-OVA formulation with that of free OVA, mice were also treated with concentrations of OVA equimolar to that present in XCL1-OVA vaccibodies. Three days after immunisation, single-cell suspensions were prepared from ear-draining auricular lymph nodes (LNs) and the extent of OT-I and OT-II cell proliferation was determined by CTV dilution (FIG. 3A).
A P.L.E.A.S.E. portable laser developed by Pantec Biosolutions AG (Bach et al, 2012) was used with the following setting: fluence: 11.9 J/cm^2, pulse duration: 75 μs; RepRate: 200 Hz; pulses per pore: 2, pore array size: 14 mm^2 and pore density 8%. P.L.E.A.S.E.-assisted skin microporation was performed on the ear of anesthetized mice. 20 μl of sterile PBS, 20 μl of sterile PBS containing 1.5 μg (low) or 3.1 μg (high) OVA, or 20 μl of sterile PBS containing 2.5 μg (low) or 5 μg (high) XCL1-OVA were then evenly applied on the microporated ear surface. The PBS solution percolated inside the micropores in less than 10 minutes.
OT-I and OT-II T cells were isolated from pooled LNs and spleen of OT-I or OT-II mice kept on a Rag-2^−/−-B6 [CD45.1] background using CD8^+ and CD4^+ T cell negative isolation kits (Dynal, Invitrogen), respectively. Purity was determined by staining with CD4, CD8, CD5 and TCR Vα2. For CTV labeling, purified OT-I and OT-II T cells were resuspended in PBS containing 2.5 mM cell trace violet (CTV) (Molecular Probes) for 3 min at room temperature. 10^6 CTV-labeled OT-I and OT-II T cells were adoptively transferred into the specified mice. At the indicated times, single-cell suspensions were prepared from the auricular LNs draining the immunized ears and OT-I and OT-II T cells were analyzed by FACS.

B16 melanoma = B16 melanoma tumor model; type: in vivo, mouse; settings: B6 mice immunized 3 days after inoculation, day 11 after immunization
Experimental: A B6 mice were subcutaneously inoculated with B16-OVA or B16 melanoma, and immunized 3 days later with XCL1-OVA vaccibodies using laser-assisted, dermal delivery. On day 11 after immunization, the volume of the tumor developing in each mouse was determined. Data are shown for each individual mouse and the mean (horizontal bar) is indicated for each condition. **, p<0.01.
The B16-OVA melanoma is not rejected by immune-competent syngeneic B6 mice, unless mice have been subjected to prophylactic or therapeutic immunization. To evaluate the capacity of laser-assisted, intradermal delivery of XCL1-OVA vaccibodies to inhibit the growth of B16-OVA tumors, B6 mice were subcutaneously inoculated in the flank with B16-OVA cells (FIG. 4A). Three days later, the ear of the mice was subjected to laser-assisted, dermal delivery of XCL1-OVA vaccibodies and tumor growth was monitored 16 days after inoculation. For the sake of comparison, mice received equimolar amounts of free OVA or PBS. […]
as §1

[3] = system: SIINFEKL peptide-pulsed splenocytes; assay: In vivo cytotoxicity assay; design: species or system mouse
Experimental: C B6 (WT) and Xcr1^−/− mice were subjected to laser-assisted, dermal delivery of 20 μl of PBS containing OVA (1.5 μg) or XCL1-OVA (2.5 μg) vaccibodies or of 20 μl of PBS (control), or. On day 6, mice were injected with CFSE-labeled target cells to quantitate the induced OVA-specific cytotoxicity in vivo (see Materials and Methods). The percent specific lysis is shown for each individual mouse and the mean (horizontal bar) is indicated for each condition. *, p<0.05.
To assess whether the reduction in melanoma tumor growth observed upon treatment with XCL1-OVA vaccibodies was associated with the induction of endogeneous, antigen-specific CD8^+ T cells, wild-type and Xcr1^−/− mice were immunized via laser-assisted intradermal delivery of XCL1-OVA vaccibodies. Six days after immunization, the magnitude of OVA-specific T cell cytotoxicity was measured using an in vivo cytotoxic assay (FIG. 5 C). […] Therefore, laser-assisted, intradermal delivery of XCL1-OVA vaccibodies induced anti-tumoral responses that can be correlated with the presence of OVA-specific IFNgamma^+ T cells in the regressing tumor mass.
Splenocytes from B6 mice were pulsed with the SIINFEKL peptide or left untreated and labeled with low (0.25 mM) or high (2.5 mM) dose of CTV, respectively. […] 36 h later, single-cell suspension were prepared from spleen and the ratio of CTV^high to CTV^low cells was determined by FACS.

[4] = B6 mice, auricular LNs, 3 days after immunisation

## ovalbumin [model antigen ovalbumin in free form, equimolar comparator, reference compound]
B16-OVA melanoma
  tumor growth, therapeutic setting: unable to slow down tumor growth
[1]
  IFN gamma production by CD8+ and CD4+ T cells infiltrating B16-OVA tumor mass: did not induce IFN[…]^+ T cells over PBS control

B1: XCL1-OVA vaccibodies: homodimeric chimeric protein of XCL1 chemokine, dimerization unit of hinge and CH3 domain of human IgG3, and OVA antigen moiety (protein)
chain: VGTEVLEESSCVNLQTQRLPVQKIKTYIIWEGAMRAVIFVTKRGLKICADPEAKWVKAAIKTVDGRASTRKNMAETVPTGAQRSTSTAITLTGELKTPLGDTTHTCPRCPEPKSCDTPPPCPRCPEPKSCDTPPPCPRCPEPKSCDTPPPCPRCPAPELLGGPSVFLFPPKPKDTLMISRTPEVTCVVVDVSHEDPEVQFKWYVDGVEVHNAKTKPREEQYNSTFRVVSVLTVLHQDWLNGKEYKCKVSNKALPAPIEKTISKTKGQPREPQVYTLPPSREEMTKNQVSLTCLVKGFYPSDIAVEWESSGQPENNYNTTPPMLDSDGSFFLYSKLTVDKSRWQQGNIFSCSVMHEALHNRFTQKSLSLSPGKGSIGAASMEFCFDVFKELKVHHANENIFYCPIAIMSALAMVYLGAKDSTRTQINKVVRFDKLPGFGDSIEAQCGTSVNVHSSLRDILNQITKPNDVYSFSLASRLYAEERYPILPEYLQCVKELYRGGLEPINFQTAADQARELINSWVESQTNGIIRNVLQPSSVDSQTAMVLVNAIVFKGLWEKAFKDEDTQAMPFRVTEQESKPVQMMYQIGLFRVASMASEKMKILELPFASGTMSMLVLLPDEVSGLEQLESIINFEKLTEWTSSNVMEERKIKVYLPRMKMEEKYNLTSVLMAMGITDVFSSSANLSGISSAESLKISQAVHAAHAEINEAGREVVGSAEAGVDAASVSEEFRADHPFLFCIKHIATNAVLFFGRCVSP
[2]; [4]
  effectiveness at eliciting CD4+ T cell proliferation relative to free OVA, per molecule: 3 times
  effectiveness at eliciting CD8+ T cell proliferation relative to free OVA, per molecule: 15 times
[2]; B6 mice, ear-draining auricular LNs, 72 h after laser-assisted delivery, equimolar amounts
  OT-I and OT-II cell proliferation (CTV dilution) compared with free OVA: triggered a higher proliferation of OT-I and OT-II cells than free OVA
[2]; Xcr1−/− mice
  magnitude of OT-I and OT-II proliferation: comparable to that of OVA
[2]; spleen and LNs that drain territories distinct from the ear, 72 h
  proliferation of OT-I and OT-II T cells outside draining LNs: showed no sign of proliferation
B16-OVA melanoma; B6 (WT) vs Xcr1−/− mice
  inhibition of B16-OVA tumor growth, XCR1 dependence: dependent on the expression of XCR1
B16-OVA melanoma; B6 mice immunized 30 days before inoculation, monitored 14 days after inoculation, vs OVA and PBS
  tumor growth, prophylactic setting: significantly slowed down tumor growth
B16-OVA melanoma
  tumor growth, therapeutic setting: significantly suppressed tumor growth
B16-OVA melanoma; high dose 5.0 μg XCL1-OVA
  tumor growth, therapeutic setting, high dose vs low dose: tumor growth was further reduced
B16 melanoma
  tumor growth of B16 melanoma: not able to control the growth of B16 melanoma
[3]; Xcr1−/− mice
  OVA-specific T cell cytotoxicity in vivo (specific lysis): absence of detectable lysis
[3]; wild-type mice, six days after immunization, vs PBS treated mice
  OVA-specific T cell cytotoxicity in vivo: induced a significant T cell cytotoxicity
[1]
  IFN gamma production by CD8+ and CD4+ T cells infiltrating B16-OVA tumor mass: capable of producing interferon (IFN) gamma
